First the molecules themselves.
B1: Annexin A5, P08758 (parent)
chain: MAQVLRGTVTDFPGFDERADAETLRKAMKGLGTDEESILTLLTSRSNAQRQEISAAFKTLFGRDLLDDLKSELTGKFEKLIVALMKPSRLYDAYELKHALKGAGTNEKVLTEIIASRTPEELRAIKQVYEEEYGSSLEDDVVGDTSGYYQRMLVVLLQANRDPDAGIDEAQVEQDAQALFQAGELKWGTDEEKFITIFGTRSVSHLRKVFDKYMTISGFQIEETIDRETSGNLEQLLLAVVKSIRSIPAYLAETLYYAMKGAGTDDHTLIRVMVSRSEIDLFNIRKEFRKNFATSLYSMIKGDTSGDYKKALLLLCGEDD

Experimental findings from FireProtDB (doi:10.1021/bi962163z) are described below.

As a reminder, the Tm is the temperature at which the thermal transition is half complete.

In this series the parent is B1. To be noted: Homo sapiens; pH 8; Thermal; DSC; Tris 50 mM; KCl 100 mM; reversible: no; structure 1AVR; whole UniProt chain shown.
In the case of E17G, the Tm stood at 52.8 °C, the “unfolding enthalpy (calorimetric)” value turned out to be 164 kcal/mol and the “unfolding enthalpy (van 't Hoff)” value was determined as 173 kcal/mol.
